Reference: patent US8889621B2, “Inhibiting binding of FGF23 to the binary FGFR-Klotho complex for the treatment of hypophosphatemia” (New York University, priority 2009, dated 2014)
Blank lines part the entries; values can stand above or below the molecule they belong to.

Assays:
[1] = biological target: T1, binary FGFR1c-Klotho complex (UniProt O35082+P11362); experiment: Reverse SPR competition: FGFR1c-Klotho binding to immobilized FGF23^180-251; set-up: species or system human FGFR1c, murine Klotho; conditions: reverse SPR format
T1 construct: The ectodomain of murine Klotho (A35 to K982) was purified from culture media; FLAG (C); made in house; host or cells: E. coli (FGFR1c, FGF23); HEK293 (Klotho ectodomain)
T1 sequence (P11362 142-365): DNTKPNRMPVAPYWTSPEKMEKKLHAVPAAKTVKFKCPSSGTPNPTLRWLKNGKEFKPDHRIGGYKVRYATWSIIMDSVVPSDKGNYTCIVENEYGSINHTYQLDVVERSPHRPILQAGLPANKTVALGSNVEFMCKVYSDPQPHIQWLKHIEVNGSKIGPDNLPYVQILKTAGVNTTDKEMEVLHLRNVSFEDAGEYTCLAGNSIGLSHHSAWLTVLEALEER
T1 sequence (O35082 35-982): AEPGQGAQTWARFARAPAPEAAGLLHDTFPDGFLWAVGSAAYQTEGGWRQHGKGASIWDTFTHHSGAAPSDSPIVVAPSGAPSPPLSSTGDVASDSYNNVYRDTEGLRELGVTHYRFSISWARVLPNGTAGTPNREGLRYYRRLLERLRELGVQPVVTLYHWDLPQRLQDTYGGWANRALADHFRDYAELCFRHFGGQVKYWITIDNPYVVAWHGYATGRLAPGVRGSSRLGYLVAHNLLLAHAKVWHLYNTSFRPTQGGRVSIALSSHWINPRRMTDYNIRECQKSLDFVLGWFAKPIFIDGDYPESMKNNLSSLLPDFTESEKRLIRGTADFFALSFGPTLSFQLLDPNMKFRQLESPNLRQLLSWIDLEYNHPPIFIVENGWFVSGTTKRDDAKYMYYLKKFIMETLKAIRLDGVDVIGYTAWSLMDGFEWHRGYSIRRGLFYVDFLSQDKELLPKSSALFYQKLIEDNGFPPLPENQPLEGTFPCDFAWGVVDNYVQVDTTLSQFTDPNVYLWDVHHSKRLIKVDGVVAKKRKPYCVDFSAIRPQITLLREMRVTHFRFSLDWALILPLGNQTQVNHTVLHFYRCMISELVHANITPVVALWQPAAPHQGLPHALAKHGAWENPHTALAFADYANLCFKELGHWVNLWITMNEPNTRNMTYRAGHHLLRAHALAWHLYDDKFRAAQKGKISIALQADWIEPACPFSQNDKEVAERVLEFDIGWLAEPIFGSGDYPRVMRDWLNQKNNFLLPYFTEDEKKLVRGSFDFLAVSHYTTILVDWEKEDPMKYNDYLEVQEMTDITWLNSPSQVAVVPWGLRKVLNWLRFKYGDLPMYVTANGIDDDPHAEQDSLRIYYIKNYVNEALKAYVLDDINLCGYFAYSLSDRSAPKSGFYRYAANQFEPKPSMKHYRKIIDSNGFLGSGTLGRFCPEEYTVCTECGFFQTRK
Experimental: (§1) A variety of interaction or binding assays can be used to determine that an agent specifically binds the binary FGFR-Klotho complex, such as the SPR interaction analysis described below. One aspect of the present invention utilizes SPR analysis of FGF23 protein/peptide binding to the binary FGFR-Klotho complex. The SPR analysis involved FGF23 protein/peptide immobilization by amine coupling on flow channels of a chip. Proteins were injected over the chip at a flow rate of 50 μl min^−1, and at the end of each protein injection (180 s), HBS-EP buffer (10 mM HEPES-NaOH, pH 7.4, 150 mM NaCl, 3 mM EDTA, 0.005% (v/v) polysorbate 20; 50 μl min^−1) was flowed over the chip to monitor dissociation for 180 s. The chip surface was then regenerated by injecting 50 μl of 2.0 M NaCl in 10 mM sodium acetate, pH 4.5. […] For each protein injection over a FGF23 protein/peptide chip, the nonspecific responses from the FHF1B control flow channel were subtracted from the responses recorded for the flow channel onto which FGF23 protein/peptide was immobilized. […] As a control, competition of FGF23 C-terminal tail peptide in solution with immobilized FGF23 C-terminal tail peptide for binding to the binary FGFR1c-Klotho complex was analyzed. […]

[2] = biological target: T1, binary FGFR1c-Klotho complex; experiment: SPR: binary FGFR1c-Klotho complex passed over immobilized FGF23 protein/peptide; type: binding, human FGFR1c, murine Klotho
Experimental: as §1

inhibition of FGFR1c-Klotho binding to immobilized FGF23^180-251 [1]: inhibition | binding to the binary FGFR1c-Klotho complex [2]: avidly bound
B1: FGF23^180-251: 72-amino acid C-terminal tail of human FGF23 (S180 to I251), expressed in E. coli (protein, listed as Homo sapiens)
chain: SAEDDSERDPLNVLKPRARMTPAPASCSQELPSAEDNSPMASDPLGVVRGGRVNTHAGGTGPEGCRPFAKFI

inhibition of FGFR1c-Klotho binding to immobilized FGF23^180-251 [1]: inhibition | binding to the binary FGFR1c-Klotho complex [2]: bound to the FGFR1c-Klotho complex
B2: FGF23^28-251: human FGF23 (A28 to I251), bioactive full-length ligand expressed in E. coli (protein, listed as Homo sapiens)
chain: ASPLLGSSWGGLIHLYTATARNSYHLQIHKNGHVDGAPHQTIYSALMIRSEDAGFVVITGVMSRRYLCMDFRGNIFGSHYFDPENCRFQHQTLENGYDVYHSPQYHFLVSLGRAKRAFLPGMNPPPYSQFLSRRNEIPLIHFNTPIPRRHTRSAEDDSERDPLNVLKPRARMTPAPASCSQELPSAEDNSPMASDPLGVVRGGRVNTHAGGTGPEGCRPFAKFI
